Results as given in PMC11080051, “Melanoma-Derived DNA Polymerase Theta Variants Exhibit Altered DNA Polymerase Activity”.

Tests used:
Assay in all cases: EMSA; 6 mM MgCl2; EMSA: 10 mM Tris-HCl pH 7.5, 6 mM MgCl2, 100 mM NaCl, 10% glycerol, 0.1% NP-40; 10 nM DNA, 0-1000 nM protein, 1 h at room temperature; 6% native PAGE
Conditions in all cases: protein: recombinant; tags: 6xHis-SUMO, cleaved off; label: 5'-6-FAM on primer; 22 bp; 5' overhang 18 nt on template; 5' overhang 3 nt (TTT) on primer
[1] = molecular target: T1, DNA polymerase theta polymerase domain (PolQM1), E2406K (Homo sapiens, UniProt O75417 1792-2590, E2406K)
T1 sequence: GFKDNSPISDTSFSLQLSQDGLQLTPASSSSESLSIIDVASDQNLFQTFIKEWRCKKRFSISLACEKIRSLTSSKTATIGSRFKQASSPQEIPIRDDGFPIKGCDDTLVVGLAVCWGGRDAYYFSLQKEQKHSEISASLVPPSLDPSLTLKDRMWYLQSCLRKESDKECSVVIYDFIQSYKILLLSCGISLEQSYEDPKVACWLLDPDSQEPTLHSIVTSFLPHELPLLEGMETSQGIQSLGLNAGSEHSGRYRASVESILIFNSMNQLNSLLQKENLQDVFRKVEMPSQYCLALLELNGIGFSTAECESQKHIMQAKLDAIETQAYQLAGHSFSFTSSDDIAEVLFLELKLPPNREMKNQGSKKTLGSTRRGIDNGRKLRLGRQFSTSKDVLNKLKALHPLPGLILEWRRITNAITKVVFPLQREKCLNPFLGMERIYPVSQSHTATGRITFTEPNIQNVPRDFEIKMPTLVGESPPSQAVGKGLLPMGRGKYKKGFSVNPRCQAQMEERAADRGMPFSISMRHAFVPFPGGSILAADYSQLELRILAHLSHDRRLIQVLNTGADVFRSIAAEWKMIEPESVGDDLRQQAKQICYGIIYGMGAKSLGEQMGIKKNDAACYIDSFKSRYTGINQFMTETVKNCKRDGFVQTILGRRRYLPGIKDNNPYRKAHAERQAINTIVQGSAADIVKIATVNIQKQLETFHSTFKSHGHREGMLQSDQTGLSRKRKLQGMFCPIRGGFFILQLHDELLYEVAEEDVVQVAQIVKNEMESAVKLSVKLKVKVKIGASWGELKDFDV

[2] = molecular target: T2, DNA polymerase theta polymerase domain (PolQM1), T2161I (Homo sapiens, UniProt O75417 1792-2590, T2161I)
T2 sequence: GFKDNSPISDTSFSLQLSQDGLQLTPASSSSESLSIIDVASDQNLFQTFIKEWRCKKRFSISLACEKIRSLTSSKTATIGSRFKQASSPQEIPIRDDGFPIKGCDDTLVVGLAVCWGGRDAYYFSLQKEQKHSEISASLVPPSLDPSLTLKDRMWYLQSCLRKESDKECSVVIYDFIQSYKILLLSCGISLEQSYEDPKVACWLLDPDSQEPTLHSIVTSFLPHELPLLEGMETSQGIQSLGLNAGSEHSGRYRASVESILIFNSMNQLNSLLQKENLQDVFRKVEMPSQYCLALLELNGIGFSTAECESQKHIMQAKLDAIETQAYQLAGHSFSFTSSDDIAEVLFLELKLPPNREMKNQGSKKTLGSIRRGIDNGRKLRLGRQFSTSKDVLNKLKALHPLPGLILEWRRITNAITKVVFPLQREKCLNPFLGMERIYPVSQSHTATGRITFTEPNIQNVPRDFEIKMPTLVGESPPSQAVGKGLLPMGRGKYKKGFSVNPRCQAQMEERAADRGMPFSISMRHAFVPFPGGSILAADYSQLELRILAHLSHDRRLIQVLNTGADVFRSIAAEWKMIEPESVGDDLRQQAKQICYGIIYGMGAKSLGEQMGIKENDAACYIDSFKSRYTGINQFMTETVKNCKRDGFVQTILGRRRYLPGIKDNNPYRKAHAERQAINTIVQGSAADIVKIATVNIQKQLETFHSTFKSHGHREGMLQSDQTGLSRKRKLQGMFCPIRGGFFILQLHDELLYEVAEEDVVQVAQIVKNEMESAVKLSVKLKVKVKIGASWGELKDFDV

[3] = molecular target: T3, DNA polymerase theta polymerase domain (PolQM1), WT (Homo sapiens, UniProt O75417 1792-2590)
T3 sequence: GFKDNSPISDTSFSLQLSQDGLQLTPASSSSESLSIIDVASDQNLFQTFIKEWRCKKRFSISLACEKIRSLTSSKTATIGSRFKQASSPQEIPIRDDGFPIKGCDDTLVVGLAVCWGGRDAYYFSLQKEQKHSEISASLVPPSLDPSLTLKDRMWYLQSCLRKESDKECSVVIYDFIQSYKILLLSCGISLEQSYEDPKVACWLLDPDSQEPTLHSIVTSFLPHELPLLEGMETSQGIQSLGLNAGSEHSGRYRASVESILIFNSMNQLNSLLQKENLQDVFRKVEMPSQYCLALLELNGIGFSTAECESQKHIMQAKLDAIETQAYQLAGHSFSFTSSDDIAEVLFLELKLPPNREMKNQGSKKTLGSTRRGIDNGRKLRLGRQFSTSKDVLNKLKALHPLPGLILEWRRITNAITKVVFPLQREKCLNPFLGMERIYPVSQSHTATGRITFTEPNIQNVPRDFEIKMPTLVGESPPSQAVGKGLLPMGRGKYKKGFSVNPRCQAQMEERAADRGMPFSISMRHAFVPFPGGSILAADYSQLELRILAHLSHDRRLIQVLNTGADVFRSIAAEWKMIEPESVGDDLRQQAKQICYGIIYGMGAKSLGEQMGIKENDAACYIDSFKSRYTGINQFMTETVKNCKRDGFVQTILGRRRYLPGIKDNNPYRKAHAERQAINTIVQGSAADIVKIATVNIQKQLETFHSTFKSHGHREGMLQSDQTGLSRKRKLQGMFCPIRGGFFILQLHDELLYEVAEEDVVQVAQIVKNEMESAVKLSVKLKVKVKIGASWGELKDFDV

[4] = molecular target: T4, DNA polymerase theta polymerase domain (PolQM1), L2538R (Homo sapiens, UniProt O75417 1792-2590, L2538R)
T4 sequence: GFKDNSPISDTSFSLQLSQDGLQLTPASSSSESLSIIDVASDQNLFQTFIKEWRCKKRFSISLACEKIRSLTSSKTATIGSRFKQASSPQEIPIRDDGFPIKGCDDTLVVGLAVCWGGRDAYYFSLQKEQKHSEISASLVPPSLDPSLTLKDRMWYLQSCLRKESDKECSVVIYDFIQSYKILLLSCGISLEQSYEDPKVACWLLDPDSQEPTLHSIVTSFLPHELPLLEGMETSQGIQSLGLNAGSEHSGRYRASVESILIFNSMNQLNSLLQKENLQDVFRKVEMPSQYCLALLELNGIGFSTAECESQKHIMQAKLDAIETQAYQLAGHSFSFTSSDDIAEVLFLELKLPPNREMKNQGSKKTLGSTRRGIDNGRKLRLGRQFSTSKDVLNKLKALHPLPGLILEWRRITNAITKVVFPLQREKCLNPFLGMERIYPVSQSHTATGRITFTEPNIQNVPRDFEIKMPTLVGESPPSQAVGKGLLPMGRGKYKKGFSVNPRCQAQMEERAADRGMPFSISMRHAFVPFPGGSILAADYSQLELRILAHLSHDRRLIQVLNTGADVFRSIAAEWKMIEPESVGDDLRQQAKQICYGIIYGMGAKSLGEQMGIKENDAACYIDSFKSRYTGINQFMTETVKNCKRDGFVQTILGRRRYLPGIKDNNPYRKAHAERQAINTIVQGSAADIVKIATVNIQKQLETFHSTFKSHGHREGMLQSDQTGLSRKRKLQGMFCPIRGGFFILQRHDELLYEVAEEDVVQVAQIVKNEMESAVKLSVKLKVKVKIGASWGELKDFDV

B1: 25/40 primer-template duplex (CG template) (dsDNA)
DNA 1: TTTGCCTTGACCATGTAACAGAGAG
DNA 2: TCTCTTCTCTCACTCACGCTCTCTGTTACATGGTCAAGGC
Work on B1 yielded a Kd [1] of 14 ± 3 nM, a Kd [2] of 13 ± 3 nM and a Kd [3] of 18 ± 3 nM. The Kd [4] was 18 ± 4 nM.
